Usually IC50 stands for the point on the concentration scale where inhibition reaches its midpoint.

Numbered stars: 1 amine (or outer) side, 2 acyl side, 3 side chain; on linkers, the order of the positions; unused ones are H or OH. Bridge positions count the residues as written; N and C are the ends. Side chains are listed from the residue outwards. Ends that are not written are not given here. * marks the point of attachment. C20 diacid = O=C(O)CCCCCCCCCCCCCCCCCCC(=O)*; γGlu = O=C(O)[C@H](CCC(=O)[*:2])N[*:1]

Assay [1] addresses T1, human calcitonin receptor (human, UniProt P30988 25-474).
T1 construct: whole, on cells; Membranes of BHK cells stably transfected with the human calcitonin receptor (Assay VII); also called hCTR; hCT
T1 sequence (looked up): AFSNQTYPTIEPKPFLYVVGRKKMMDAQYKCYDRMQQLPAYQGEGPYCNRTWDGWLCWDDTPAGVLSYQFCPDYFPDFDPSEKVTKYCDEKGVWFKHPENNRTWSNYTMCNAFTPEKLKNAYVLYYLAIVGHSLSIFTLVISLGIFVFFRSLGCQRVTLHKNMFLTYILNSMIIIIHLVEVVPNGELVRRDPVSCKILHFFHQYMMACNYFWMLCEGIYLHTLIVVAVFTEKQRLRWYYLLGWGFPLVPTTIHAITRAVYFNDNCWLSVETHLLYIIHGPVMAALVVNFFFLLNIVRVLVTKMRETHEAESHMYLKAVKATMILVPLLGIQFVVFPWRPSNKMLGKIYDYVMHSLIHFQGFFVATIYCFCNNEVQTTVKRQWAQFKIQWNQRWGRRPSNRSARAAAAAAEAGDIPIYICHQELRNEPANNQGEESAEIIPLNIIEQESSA
The experiment in a line: SPA competition against 125I-calcitonin, membranes of BHK cells with human calcitonin receptor (Assay VII). An outline of the steps: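 BHK hCTR membranes 35 ng/μL + SPA beads 0.05 mg/well; buffer 50 mM Hepes pH 7.4, 1 mM CaCl2, 5 mM MgCl₂, 0.1% OA, 0.02% Tween20. 120 min, 25° C., shaking. Scintillation count; IC50 by one-site binding competition.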

Assay [2] deals with T1, human calcitonin receptor. As to the kind of experiment: ratio of IC50 at hCTR over IC50 at hAmylin-R (SPA competition assays). An outline of the steps: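 Scintillation proximity competition binding on cell membranes at 35 ng/μL with SPA beads, in 50 mM Hepes pH 7.4, 1 mM CaCl2, 5 mM MgCl₂, 0.1% OA, 0.02% Tween20. Incubated 120 min at 25° C with shaking. IC₅₀ from one-site competition fit.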

B1: N^ε1-[(4S)-4-carboxy-4-[[(4S)-4-carboxy-4-(19-carboxynonadecanoylamino)butanoyl]amino]butanoyl]-[Glu14,Arg17,Pro21,Pro27,His34,Glu35]-h-amylin (peptide)
peptide: K([γGlu-γGlu-C20 diacid])CNTATCATQRLAEFLRHSSPNFGAIPSSTNVGHETY-NH2
modifications: disulfide 2-7; N-terminus assumed
SMILES: CC[C@H](C)[C@H](NC(=O)[C@H](C)NC(=O)CNC(=O)[C@H](Cc1ccccc1)NC(=O)[C@H](CC(N)=O)NC(=O)[C@@H]1CCCN1C(=O)[C@H](CO)NC(=O)[C@H](CO)NC(=O)[C@H](Cc1c[nH]cn1)NC(=O)[C@H](CCCNC(=N)N)NC(=O)[C@H](CC(C)C)NC(=O)[C@H](Cc1ccccc1)NC(=O)[C@H](CCC(=O)O)NC(=O)[C@H](C)NC(=O)[C@H](CC(C)C)NC(=O)[C@H](CCCNC(=N)N)NC(=O)[C@H](CCC(N)=O)NC(=O)[C@@H](NC(=O)[C@H](C)NC(=O)[C@@H]1CSSC[C@H](NC(=O)[C@@H](N)CCCCNC(=O)CC[C@H](NC(=O)CC[C@H](NC(=O)CCCCCCCCCCCCCCCCCCC(=O)O)C(=O)O)C(=O)O)C(=O)N[C@@H](CC(N)=O)C(=O)N[C@@H]([C@@H](C)O)C(=O)N[C@@H](C)C(=O)N[C@@H]([C@@H](C)O)C(=O)N1)[C@@H](C)O)C(=O)N1CCC[C@H]1C(=O)N[C@@H](CO)C(=O)N[C@@H](CO)C(=O)N[C@H](C(=O)N[C@@H](CC(N)=O)C(=O)N[C@H](C(=O)NCC(=O)N[C@@H](Cc1c[nH]cn1)C(=O)N[C@@H](CCC(=O)O)C(=O)N[C@H](C(=O)N[C@@H](Cc1ccc(O)cc1)C(N)=O)[C@@H](C)O)C(C)C)[C@@H](C)O
Consider B1, for which, in assay [1], the IC50 is 15.2 nM. Further, the “Ratio hCT/hAmylin binding” value in assay [2] came to 29.1.

B2: N^ε1-[(4S)-4-carboxy-4-[[(4S)-4-carboxy-4-(19-carboxynonadecanoylamino)butanoyl]amino]butanoyl]-[Glu14,Arg17,Pro23,Pro34,Glu35]-h-amylin (peptide)
peptide: K([γGlu-γGlu-C20 diacid])CNTATCATQRLAEFLRHSSNNPGAILSSTNVGPETY-NH2
modifications: disulfide 2-7; N-terminus assumed
SMILES: CC[C@H](C)[C@H](NC(=O)[C@H](C)NC(=O)CNC(=O)[C@@H]1CCCN1C(=O)[C@H](CC(N)=O)NC(=O)[C@H](CC(N)=O)NC(=O)[C@H](CO)NC(=O)[C@H](CO)NC(=O)[C@H](Cc1c[nH]cn1)NC(=O)[C@H](CCCNC(=N)N)NC(=O)[C@H](CC(C)C)NC(=O)[C@H](Cc1ccccc1)NC(=O)[C@H](CCC(=O)O)NC(=O)[C@H](C)NC(=O)[C@H](CC(C)C)NC(=O)[C@H](CCCNC(=N)N)NC(=O)[C@H](CCC(N)=O)NC(=O)[C@@H](NC(=O)[C@H](C)NC(=O)[C@@H]1CSSC[C@H](NC(=O)[C@@H](N)CCCCNC(=O)CC[C@H](NC(=O)CC[C@H](NC(=O)CCCCCCCCCCCCCCCCCCC(=O)O)C(=O)O)C(=O)O)C(=O)N[C@@H](CC(N)=O)C(=O)N[C@@H]([C@@H](C)O)C(=O)N[C@@H](C)C(=O)N[C@@H]([C@@H](C)O)C(=O)N1)[C@@H](C)O)C(=O)N[C@@H](CC(C)C)C(=O)N[C@@H](CO)C(=O)N[C@@H](CO)C(=O)N[C@H](C(=O)N[C@@H](CC(N)=O)C(=O)N[C@H](C(=O)NCC(=O)N1CCC[C@H]1C(=O)N[C@@H](CCC(=O)O)C(=O)N[C@H](C(=O)N[C@@H](Cc1ccc(O)cc1)C(N)=O)[C@@H](C)O)C(C)C)[C@@H](C)O
B2: the IC50 in assay [1] was 9.29 nM. In assay [2], the “Ratio hCT/hAmylin binding” value was determined as 7.8.

B3: N^ε1-[(4S)-4-carboxy-4-[[(4S)-4-carboxy-4-(19-carboxynonadecanoylamino)butanoyl]amino]butanoyl]-[Glu14,Arg17,Pro21,Pro27,Pro34,Arg35]-h-amylin (peptide)
peptide: K([γGlu-γGlu-C20 diacid])CNTATCATQRLAEFLRHSSPNFGAIPSSTNVGPRTY-NH2
modifications: disulfide 2-7; N-terminus assumed
SMILES: CC[C@H](C)[C@H](NC(=O)[C@H](C)NC(=O)CNC(=O)[C@H](Cc1ccccc1)NC(=O)[C@H](CC(N)=O)NC(=O)[C@@H]1CCCN1C(=O)[C@H](CO)NC(=O)[C@H](CO)NC(=O)[C@H](Cc1c[nH]cn1)NC(=O)[C@H](CCCNC(=N)N)NC(=O)[C@H](CC(C)C)NC(=O)[C@H](Cc1ccccc1)NC(=O)[C@H](CCC(=O)O)NC(=O)[C@H](C)NC(=O)[C@H](CC(C)C)NC(=O)[C@H](CCCNC(=N)N)NC(=O)[C@H](CCC(N)=O)NC(=O)[C@@H](NC(=O)[C@H](C)NC(=O)[C@@H]1CSSC[C@H](NC(=O)[C@@H](N)CCCCNC(=O)CC[C@H](NC(=O)CC[C@H](NC(=O)CCCCCCCCCCCCCCCCCCC(=O)O)C(=O)O)C(=O)O)C(=O)N[C@@H](CC(N)=O)C(=O)N[C@@H]([C@@H](C)O)C(=O)N[C@@H](C)C(=O)N[C@@H]([C@@H](C)O)C(=O)N1)[C@@H](C)O)C(=O)N1CCC[C@H]1C(=O)N[C@@H](CO)C(=O)N[C@@H](CO)C(=O)N[C@H](C(=O)N[C@@H](CC(N)=O)C(=O)N[C@H](C(=O)NCC(=O)N1CCC[C@H]1C(=O)N[C@@H](CCCNC(=N)N)C(=O)N[C@H](C(=O)N[C@@H](Cc1ccc(O)cc1)C(N)=O)[C@@H](C)O)C(C)C)[C@@H](C)O
notes: also called compound 110
On to B3, for which the IC50 in assay [1] is 17.5 nM. Also, in assay [2], the “Ratio hCT/hAmylin binding” value was 53.6.
As for K([γGlu-γGlu-C20 diacid])CNTATCATQRLAEFLRHSSPNFGAILSSTPVGPETY-NH2 (disulfide 2-7 (inferred)), the IC50 in assay [1] stood at 1.56 nM. For the same molecule, the “Ratio hCT/hAmylin binding” value in assay [2] was found to be 22.6.

B4: N^ε1-[(4S)-4-carboxy-4-[[(4S)-4-carboxy-4-(19-carboxynonadecanoylamino)butanoyl]amino]butanoyl]-[Glu14,Arg17,Pro21,Pro27,Pro34,Phe37]-h-amylin (peptide)
peptide: K([γGlu-γGlu-C20 diacid])CNTATCATQRLAEFLRHSSPNFGAIPSSTNVGPNTF-NH2
modifications: disulfide 2-7; N-terminus assumed
SMILES: CC[C@H](C)[C@H](NC(=O)[C@H](C)NC(=O)CNC(=O)[C@H](Cc1ccccc1)NC(=O)[C@H](CC(N)=O)NC(=O)[C@@H]1CCCN1C(=O)[C@H](CO)NC(=O)[C@H](CO)NC(=O)[C@H](Cc1c[nH]cn1)NC(=O)[C@H](CCCNC(=N)N)NC(=O)[C@H](CC(C)C)NC(=O)[C@H](Cc1ccccc1)NC(=O)[C@H](CCC(=O)O)NC(=O)[C@H](C)NC(=O)[C@H](CC(C)C)NC(=O)[C@H](CCCNC(=N)N)NC(=O)[C@H](CCC(N)=O)NC(=O)[C@@H](NC(=O)[C@H](C)NC(=O)[C@@H]1CSSC[C@H](NC(=O)[C@@H](N)CCCCNC(=O)CC[C@H](NC(=O)CC[C@H](NC(=O)CCCCCCCCCCCCCCCCCCC(=O)O)C(=O)O)C(=O)O)C(=O)N[C@@H](CC(N)=O)C(=O)N[C@@H]([C@@H](C)O)C(=O)N[C@@H](C)C(=O)N[C@@H]([C@@H](C)O)C(=O)N1)[C@@H](C)O)C(=O)N1CCC[C@H]1C(=O)N[C@@H](CO)C(=O)N[C@@H](CO)C(=O)N[C@H](C(=O)N[C@@H](CC(N)=O)C(=O)N[C@H](C(=O)NCC(=O)N1CCC[C@H]1C(=O)N[C@@H](CC(N)=O)C(=O)N[C@H](C(=O)N[C@@H](Cc1ccccc1)C(N)=O)[C@@H](C)O)C(C)C)[C@@H](C)O
Consider B4, for which, in assay [1], the IC50 was found to be 2.73 nM. In addition, the “Ratio hCT/hAmylin binding” value in assay [2] turned out to be 18.
For the molecule K([γGlu-γGlu-C20 diacid])CNTATCATQRLAEFLRHSSPNFGAIPSSTNVGPHTY-NH2 (disulfide 2-7 (inferred)), in assay [1], the IC50 came to 10.3 nM. Further, the “Ratio hCT/hAmylin binding” value in assay [2] turned out to be 27.3.

B5: N^ε1-[(4S)-4-carboxy-4-[[(4S)-4-carboxy-4-(19-carboxynonadecanoylamino)butanoyl]amino]butanoyl]-[Glu14,Arg17,Pro21,Pro27,Pro34,Glu35,Pro37]-h-amylin (peptide)
peptide: K([γGlu-γGlu-C20 diacid])CNTATCATQRLAEFLRHSSPNFGAIPSSTNVGPETP-NH2
modifications: disulfide 2-7; N-terminus assumed
SMILES: CC[C@H](C)[C@H](NC(=O)[C@H](C)NC(=O)CNC(=O)[C@H](Cc1ccccc1)NC(=O)[C@H](CC(N)=O)NC(=O)[C@@H]1CCCN1C(=O)[C@H](CO)NC(=O)[C@H](CO)NC(=O)[C@H](Cc1c[nH]cn1)NC(=O)[C@H](CCCNC(=N)N)NC(=O)[C@H](CC(C)C)NC(=O)[C@H](Cc1ccccc1)NC(=O)[C@H](CCC(=O)O)NC(=O)[C@H](C)NC(=O)[C@H](CC(C)C)NC(=O)[C@H](CCCNC(=N)N)NC(=O)[C@H](CCC(N)=O)NC(=O)[C@@H](NC(=O)[C@H](C)NC(=O)[C@@H]1CSSC[C@H](NC(=O)[C@@H](N)CCCCNC(=O)CC[C@H](NC(=O)CC[C@H](NC(=O)CCCCCCCCCCCCCCCCCCC(=O)O)C(=O)O)C(=O)O)C(=O)N[C@@H](CC(N)=O)C(=O)N[C@@H]([C@@H](C)O)C(=O)N[C@@H](C)C(=O)N[C@@H]([C@@H](C)O)C(=O)N1)[C@@H](C)O)C(=O)N1CCC[C@H]1C(=O)N[C@@H](CO)C(=O)N[C@@H](CO)C(=O)N[C@H](C(=O)N[C@@H](CC(N)=O)C(=O)N[C@H](C(=O)NCC(=O)N1CCC[C@H]1C(=O)N[C@@H](CCC(=O)O)C(=O)N[C@H](C(=O)N1CCC[C@H]1C(N)=O)[C@@H](C)O)C(C)C)[C@@H](C)O
Consider B5, for which the IC50 in assay [1] stood at 0.226 nM. For the same molecule, the “Ratio hCT/hAmylin binding” value in assay [2] amounted to 0.4.
